These results are taken from PMC10713829.

Some results are limits rather than exact numbers.

For orientation: IC50 means the concentration at which inhibition is half-maximal. Low values mean greater potency, high ones weaker potency.

Experiment [1] deals with HLA-A*01:01/hβ2m complex (empty, peptide-free or peptide-receptive) (human). The experiment can be described thus: differential scanning fluorimetry. In general terms: In DSF a fluorescence change marks the thermal transition of the protein.
For experiment [2] the target is unchanged. The experiment can be described thus: fluorescence polarisation. A general note: In fluorescence polarisation assays a small probe gives low polarisation when free and higher when bound to something large.
Experiment [3] has the same target. The experiment can be described thus: NMR titration.

ILDTAGKEEY [NRAS_(55-64) Q61K peptide (…)] returned a reduction in the population of empty HLA-A*01:01 after 0.5 h with peptide in experiment [1] of 50%. The IC50 in experiment [2] turned out to be 260 nM. The half-life of peptide association (t1/2) in experiment [3] was less than 3.7 h.
